One molecule from patent US10858423B2, “Composition for the treatment of IGF-1R expressing cancer” (PIERRE FABRE MEDICAMENT, priority 2015, dated 2020) can be followed below.

One assay addresses T1, IGF-1R on MCF-7 cells (Homo sapiens, UniProt P08069).
T1 construct: host or cells: MCF-7
As to the kind of experiment: IGF-1R internalization by FACS on MCF-7 cells. The assay is classed as cell-based. The conditions noted are these: Table 14c; MCF-7, 10 μg/ml, 4 h. Here is the method:
MCF-7 cells were incubated with 10 μg/ml of chimeric antibodies at 4° C. for 20 min. Then, cells were washed and incubated at 4° C. or 37° C. for 4 h. The quantity of cell-surface bound antibody was determined using a secondary antibody. The ΔMFI defined as the difference between MFI measured at 4° C. and MFI measured at 37° C. after a 4 hour incubation time corresponded to the quantity of internalized second IGF-1R antibodies Ab. The percentage of internalization at 10 μg/ml of Ab were calculated as followed 100*(MFI at 4° C.-MFI at 37° C.)/MFI at 4° C. and presented in Table 12.
The capacity of the mAb hz208F2 H026/L024 to be internalized was assessed by flow cytometry. MCF-7 cells were incubated with 10 μg/ml of antibodies at 4° C. for 20 min. […] The quantity of cell-surface bound antibody was determined using a secondary antibody. The ΔMFI defined as the difference between MFI measured at 4° C. and MFI measured at 37° C. after a 4 hour incubation time corresponded to the quantity of internalized Ab. The percentage of internalization at 10 μg/ml of Ab were calculated as followed 100*(MFI at 4° C.-MFI at 37° C.)/MFI at 4° C. and presented in Table 14a.
MCF-7 cells were incubated with 10 μg/ml of humanized antibodies at 4° C. for 20 min. […] The quantity of cell-surface bound antibody was determined using a secondary antibody on a FacsCalibur Flow cytometer (Becton Dickinson). […]
A general note: A flow cytometer gives signals particle by particle.

The next assay addresses T2, soluble form of h-IGF1R (Homo sapiens, UniProt P08069).
T2 construct: a heterotetramer composed by two alpha chains and two extracellular domains of the beta chains; made in house
As to the kind of experiment: Biacore binding competition on captured soluble h-IGF1R. The conditions noted are these: antibodies 50 μg/ml, 25° C. From the text:
The experiment was run on a Biacore X100 device based on the Surface Plasmon Resonance technology. A CM5 sensor chip was activated with a mouse anti-polyHistidine IgG1 monoclonal antibody chemically linked to the carboxymethyldextran matrix using the amine coupling chemistry. Typically, 12451 RU and 12257 RU of antibodies were grafted on the flowcell 1 (FC1) and flowcell 2 (FC2) respectively. The classical HBS-EP+ buffer was used as the running buffer. This buffer was also used for the preparation of the solutions of the proteins. The experiment was carried at 25° C. and at a flow rate of […].
The soluble form of IGF1R produced in house is a heterotetramer composed by two alpha chains and two extracellular domains of the beta chains completed by a 6 Histidine sequence at their C-terminal end. The protein is injected during one minute on the FC2 at the concentration of 30 μg/ml (about 80 nM). The antibodies are injected at the concentration of 50 μg/ml (about 330 nM). Either a first antibody solution (FIGS. 35B and 35D) or the running buffer (FIGS. 35A and 35C) is injected during 90 s on both flowcells. A second antibody solution is then injected on both flow cells. The absence of binding of the second antibody after the binding of the first antibody is the proof that both antibodies bind to a nearby site on the antigen (FIG. 35B) At the opposite the binding of the second antibody after the binding of the first antibody is the proof that the binding site of the second antibody is out and away of the binding site of the first antibody (FIG. 35D). At the end of each cycle, the sensor chip surface is regenerated by an injection of a Glycine, HCl 10 mM pH 1.5 buffer during 30 s.
The levels of binding of the Ac2 (arrows) without (FIGS. 35A and 35B) or with an Ac1 (FIGS. 35C and 35D) were recorded 20 s after the end of the injection. The data are represented on the histogram graph in FIG. 36.
(In SPR one partner is held on a chip, and binding of the other changes the refractive index at the surface.)

B1: hz208F2 H077/L018: humanized 208F2; VH SEQ ID No. 57, VL SEQ ID No. 34 (antibody, V domains shown)
VH: QVQLVQSGAEVKKPGASVKVSCKASGYTFTSYYIHWVRQAPGQGLEWMGWIWPGDGSTKYAQKFQGRVTMTRDTSTSTVYMELSSLRSEDTAVYFCASPMITPNYAMDYWGQGTLVTVSS
VL: DIQMTQSPSSLSASVGDRVTITCRASQDISKYLNWYQQKPGKAPKLLIYYTSRLQSGVPSRFSGRGSGTDYSLTISSLQPEDFATYFCQQGSTLPYTFGGGTKVEIK
modifications: hz208F2 heavy chain H077, VH; hz208F2 Light chain L018, VL
B1: in the assay with IGF-1R on MCF-7 cells, the “% Internalization” value is given as 88% and the ΔMFI was determined as 468. Moreover, the “binding as Ac2 after Hz208F2-4 injected as Ac1” value in the assay with soluble form of h-IGF1R is “completely blocks the binding of itself”.
